Assay: soluble on expression in E. coli; label from the status in PepcDB or PDB records

| Sequence | soluble on expression in E. coli |
| --- | --- |
| GEGITLNQVAVGCECQDCLWAPTGGCCPGASLHKFAYNDQGQVRLRAGLPIYECNSRCRCGYDCPNRVVQKGIRYDLCIFRTDDGRGWGVRTLEKIRKNSFVMEYVGEIITSEEAERRGQIYDRQGATYLFDLDYVEDVYTVDAAYYGNISHFVNHSCDPNLQVYNVFIDNLDERLPRIAFFATRTIRAGEELTFDYNMQVDPVDMESTRMDSNFGLAGLPGSPKKRVRIECKCGTESCRKYLF | not soluble |
| GEKVDFDDIQKKRQNKDLIELQALIDSHFEARRKEEEELVALKERIEKRRAERAE | soluble |
| GELMPPQLQNGLNLSAKVVQGSLDSLPQAVREFLENNAELCQPDHIHICDGSEEENGRLLGQMEEEGILRRLKKYDNCWLALTDPRDVARIESKTVIVTQEQRDTVPIPKTGLSQLGRWMSEEDFEKAFNARFPGCMKGRTMYVIPFSMGPLGSPLSKIGIELTDSPYVVASMRIMTRMGTPVLEALGDGEFVKCLHSVGCPLPLQKPLVNNWPCNPELTLIAHLPDRREIISFGSGYGGNSLLGKKCFALRMASRLAKEEGWLAEHMLVLGITNPEGEKKYLAAAFPSACGKTNLAMMNPSLPGWKVECVGDDIAWMKFDAQGHLRAINPENGFFGVAPGTSVKTNPNAIKTIQKNTIFTNVAETSDGGVYWEGIDEPLASGVTITSWKNKEWSSEDGEPCAHPNSRFCTPASQCPIIDAAWESPEGVPIEGIIFGGRRPAGVPLVYEALSWQHGVFVGAAMRSEATAAAEHKGKIIMHDPFAMRPFFGYNFGKYLAHWLSMAQHPAAKLPKIFHVNWFRKDKEGKFLWPGFGENSRVLEWMFNRIDGKASTKLTPIGYIPKEDALNLKGLGHINMMELFSISKEFWDKEVEDIEKYLVDQVNADLPCEIEREILALKQRISQM | soluble |
| GEVASVPLTNYLDSQYFGKIYLGTPPQEFTVLFDTGSSDFWVPSIYCKSNACKNHQRFDPRKSSTFQNLGKPLSIHYGTGSMQGILGYDTVTVSNIVDIQQTVGLSTQEPGDVFTYAEFDGILGMAYPSLASEYSIPVFDNMMNRHLVAQDLFSVYMDRNGQESMLTLGAIDPSYYTGSLHWVPVTVQQYWQFTVDSVTISGVVVACEGGCQAILDTGTSKLVGPSSDILNIQQAIGATQNQYGEFDIDCDNLSYMPTVVFEINGKMYPLTPSAYTSQDQGFCTSGFQSENHSQKWILGDVFIREYYSVFDRANNLVGLAKAI | soluble |
| GFKDYGHDYHPAPKTENIKGLGDLKPGIPKTPKQNGGGKRKRWTGDKGRKIYEWDSQHGELEGYRASDGQHLGSFDPKTGNQLKGPDPKRNIKKYL | soluble |
| GGDKQEAPITKNSIAGGQSESANSTMPGIVVPIISAETSHAAGNADPDVPDTAPLAIDTALESAWQPAKGDTLVLNFAQPYVISRVIVDSPTKDMTLEVRAGDTVVGTGTVTKSRTKITVTPAPAVTSLSIRVVGVPDGVSPEINDVKLVAKI | not soluble |
| GGEGTDAIQALIQAYFTAWNTNAPERFAEIFWPDGSWVNVVGMHWRGRDQIVFAHTAFLKTIFKDCKQELVTIEARTIAPGSALAVVTLIQDAYVTPDGRQMPRAHDRLTLLAVEREGVWRFIHGHNTIVNPDAANNDPVLRMKPA | soluble |
| GGSVIVIDSKAAWDAQLAKGKEEHKPIVVDFTATWCGPCKMIAPLFETLSNDYAGKVIFLKVDVDAVAAVAEAAGITAMPTFHVYKDGVKADDLVGASQDKLKALVAKHAAA | soluble |
| GHHHHHHHHHHSSGHIEGRHMPAAPSPAPAGAVAGGPAAGVPAAASGAAEAAMPLPAALPGALAGSHAPRLPLAAGGRLARTRAVREFFDYCLTAQGELTPAALDALVRREIAAQLDGSPAQAEALGVWRRYRAYFDALAQLPGDGAVLGDKLDPAAMQLALDQRAALADRTLGEWAEPFFGDEQRRQRHDLERIRIANDTTLSPEQKAARLAALDAQLTPDERAQQAALHAQQDAVTKIADLQKAGATPDQMRAQIAQTLGPEAAARAAQMQQDDEAWQTRYQAYAAERDRIAAQGLAPQDRDARIAQLRQQTFTAPGEAIRAASLDRGAG | soluble |
| GHLYLVPTPIGNLDDMTFRAVKTLTAVDLIAAEDTRNTQKLLNHFEITTKQISFHEHNTQERIPQLIAKLKQGMQIAQVSDAGMPSISDPGHELVNACIDAHIPVVPLPGA | not soluble |
| GHMASMDISGGNTSRQPQKKSNQNIQVYVRVRPLNSRERCIRSAEVVDVVGPREVVTRHTLDSKLTKKFTFDRSFGPESKQCDVYSVVVSPLIEEVLNGYNCTVFAYGQTGTGKTHTMVGNETAELKSSWEDDSDIGIIPRALSHLFDELRMMEVEYTMRISYLELYNEELCDLLSTDDTTKIRIFDDSTKKGSVIIQGLEEIPVHSKDDVYKLLEKGKERRKTATTLMNAQSSRSHTVFSIVVHIRENGIEGEDMLKIGKLNLVDLAGSENVSKAGNEKGIRVRETVNINQSLLTLGRVITALVDRAPHVPYRESKLTRLLQESLGGRTKTSIIATISPGHKDIEETLSTLEYAHRAKNIQNKPEVNQKLTK | soluble |
| GHMQEKPPKELVNEWSLKIRKEMRVVDRQIRDIQREEEKVKRSVKDAAKKGQKDVCIVLAKEMIRSRKAVSKLYASKAHMNSVLMGMKNQLAVLRVAGSLQKSTEVMKAMQSLVKIPEIQATMRELSKEMMKAGIIEEMLEDTFESMDDQEEMEEEAEMEIDRILFEITAGALGKAPSKVTDALPEPEPPGAMAASEDEEEEEEALEAMQSRLATLRS | soluble |
| GHMVDLEQEFALGGRVLAFHGPLMYEAKILKIWDPSSKMYTSIPNDKPGGSSQATKEIKPQKLGEDESIPEEIINGKSFFIHYQGWKSSWDEWVGYDRIRAYNEENIAMKKRLANEAGSTGSAPATGGVKKPHRYR | soluble |
| GHQLPIWKQDEKSLTENDYYSFYKNTFKAYDDPLAYVHFNVEGQISFNSILYIPGSLPWELSKNMFDEESRGIRLYVKRVFINDKFSESIPRWLTFLRGIVDSENLPLNVGREILQKSKMLSIINKRIVLKSISMMKGLKETGGDKWTKFLNTFGKYLKIGVVEDKENQEEIASLVEFYSINSGDKKTDLDSYIENMKEDQKCIYYISGENKKTAQNSPSLEKLKALNYDVLFSLEPIDEFCLSSLTVNKYKGYEVLDVNKAD | soluble |
| GHRIARKVTDVWEITGPSSEDAIEVARWNPFTKEHEHFMEKSVAIAEIGKLVGLTKDEVLAEIERRKLVLLWMAKSGIRRYREVAPIIFKYYYSPDDVYERAAKELKTELI | not soluble |
| GIDPFTMLSSGDLTSASWELVVRVDHANGEQQTEITLRVSGDLHIGGVMLKLVEQMNIAQDWSDYALWWEQKRCWLLKTHWTLDKCGVQADANLLFTPQHKM | soluble |
| GIFPAEIEDLAQKQVAVDLTQPSRFLLKVLAGANIGAEFHLDSGKTYIVGSDPQVADIVLSDMSISRQHAKIIIGNDNSVLIEDLGSKNGVIVEGRKIEHQSTLSANQVVALGTTLFLLVDYAAPS | soluble |
| GKDFKYNIGFNLSDVKNKVIDLRGYKSSTTELTAKIEGQPLNAIFGFETLGICDNQELYDKYAPMMQKYNPKWGMGDIIIKDRTGEGVINDEDRTVIGNSIPRFTFGLNLGFEYKGFDFSCFFQGVGKADGYVTMEAIQPMGINGARKEHYKESFNPQDPKPGAYFPRILSSDYNYAYMSHWVQDASYIRLKNLQIGYSFKIKGLNQLRVYASGENLFTATKYRTWDPETPVGARGFYPNVAVYSMGVNLNF | not soluble |
| GKNMDTSAEPADVQANVSDSSRIEQEAIGMIEDFYEAYAASFMSTGKEALALGDSIKQKFLTKELIEKVDRLIEATDADPIIRAQDLGENDMKTLSVKHLNDNWYEVNYTSAKGSQYERAVSIPVRVVNVDGQYLIDDITPEN | soluble |
| GKQDRQMIVVDPRKTDTAKLADVHLQVEPHKDYELVSALRAAAKGFNIEAEQVAGVPTETIYEAVDICKNAQFGSLFFAMGVTMSRGKHRIIDNAIQFVIDMNAYTKFVLTPMRGHYNVNGFNQVSTWVTGYPYGVDFSRGYPRYNPGETASNDVLQRGDTDMMINVASDAGAHFPQKAVQHMAKIPLVCIDPHETPSSVISNIVLPPAITGLEVSGTAYRMDGVPIELRKVIKAPEGMLSDAEIMK | not soluble |
| GKVFERCELARTLKRLGMDGYRGISLANWMCLAKWESGYNTRATNYNAGDRSTDYGIFQINSRYWCNDGKTPGAVNACHLSCSALLQDNIADAVACAKRVVRDPQGIRAWVAWRNRCQNRDVRQYVQGCGV | soluble |
| GLDNELSLVDGQDRTLTVQQWDTFLNGVFPLDRNRLTREWFHSGRAKYIVAGPGADEFEGTLELGYQIGFPWSLGVGINFSYTTPNILIDDGDITRPPFGLNSVITPNLFPGVSISADLGNGPGIQEVATFSVDVSGAEGGVAVSNAHGTVTGAAGGVLLRPFARLIASTGDSVTTYGEPWNMN | soluble |
| GMDAGRGAEHDEAVTSDDSASVEVPRRATPADAATVAQMLHDFNTEFGAPTPGTDELASRLSHLLAGEDVVVLLAGEPPTGLAVLSFRPNVWYPGPVAILDELYVRPGRRGHRLGSALLAASCGLVRSRGGALLEINVDGEDTDARRFYEARGFTNTEPNGTEPMLYYYREL | soluble |
| GMDIQNMPREQLGVCAEGNLHSVYLMFNANDNVESQLRPCIANVAQYIYELTDQYSDSAFNGFVAIGANYWDSLYPESRPEMLKPFPAMQEGNREAPAIEYDLFVHLRCDRYDILHLVANEISQMFEDLVELVEEERGFRFMDSRDLTGFVDGTENPKGRHRQEVALVGSEDPEFKGGSYIHVQKYAHNLSKWHRLPLKKQEDIIGRTKQDNIEYESEDKPLTSHIKRVNLKDENGKSIEILRQSMPYGSLKEQGLMFISTCRTPDHFEKMLHSMVFGDGAGNHDHLMHFTSALTGSSFFAPSLDFLMQFDN | soluble |
| GMDTPANKPCIICVAITGSVPTKADNPAVPITVSEQVESTQEAFEAGAAIAHCHVRNDDGTPSSDPDRFARLTEGLHTHCPGMIVQFSTGGRSGAGQARGGMLPLKPDMASLSVGSNNFPSRVYENPPDLVDWLAAQMRSYRVTPEIEAFDLSHILRAIDMHGRGLLYGKLYVQFVMGVKNAMPADREVFDFYVRMMRTRAPQAEWCAAGIGANQLTVNEWAIAAGGHTRTGLEDNIRLDRQTLAPSNAALVRRSVELCDKYQRPVASWQQAREILGLPAAARN | soluble |
| GMEPSAKHLQLQTLLSERHAYLMEGNREAMHQLLSSDFSFIDGQGRQFDAETYLDHYVDPDQIQWSNQISESMVVEVFETTALVQEIVEDHFSYGRSMYIGRFRSVSLYHWANEGWKWHFHQLTPLDPS | soluble |
| GMIRVMATGVFDILHLGHIHYLKESKKLGDELVVVVARDSTARNNGKIPIFDENSRLALISELKVVDRAILGHEGDMMKTVIEVKPDIITLGYDQKFDEAELQSKINKLGITVKIVRISKYDGQLNSSSSVRKKIMELIGERY | soluble |
| GMKGISHRIAIPLILEVGNNKIYNIGQIIKKGNFKRVSLYFGEGIYELFGETIEKSIKSSNIEIEAVETVKNIDFDEIGTNAFKIPAEVDALIGIGGGKAIDAVKYMAFLRKLPFISVPTSTSNDGFSSPVASLLINGKRTSVPAKTPDGIVVDIDVIKGSPEKFIYSGIGDLVSNITALYDWKFEEENHKSIIDDFAVMISKKSVNSFVRTDFKSIKDEVFLKELVDSLTMNGIAMEIAGNSSPASGAEHLISHALDKFLPNPQLHGIQVGVATYIMSKVHKHREERIKKILSDTGFFNYVKGLNMKKSDFKRAISEAHLIKPARYTYLHVEKNCETAKEIVDTDEILRNILV | soluble |

— the DeepSol protein solubility set
